Measured values taken from US20220177581A1 (Memorial Sloan Kettering, published 2022).
Positions count from the first letter of the chain named.

T1: CD22 (UniProtKB-P20273) on CD22(+) cells (human, UniProt P20273 20-847)
T1 construct: Endogenous CD22 on the NALM6 and Raji cell lines; also called SIGLEC-2; BL-CAM
T1 sequence: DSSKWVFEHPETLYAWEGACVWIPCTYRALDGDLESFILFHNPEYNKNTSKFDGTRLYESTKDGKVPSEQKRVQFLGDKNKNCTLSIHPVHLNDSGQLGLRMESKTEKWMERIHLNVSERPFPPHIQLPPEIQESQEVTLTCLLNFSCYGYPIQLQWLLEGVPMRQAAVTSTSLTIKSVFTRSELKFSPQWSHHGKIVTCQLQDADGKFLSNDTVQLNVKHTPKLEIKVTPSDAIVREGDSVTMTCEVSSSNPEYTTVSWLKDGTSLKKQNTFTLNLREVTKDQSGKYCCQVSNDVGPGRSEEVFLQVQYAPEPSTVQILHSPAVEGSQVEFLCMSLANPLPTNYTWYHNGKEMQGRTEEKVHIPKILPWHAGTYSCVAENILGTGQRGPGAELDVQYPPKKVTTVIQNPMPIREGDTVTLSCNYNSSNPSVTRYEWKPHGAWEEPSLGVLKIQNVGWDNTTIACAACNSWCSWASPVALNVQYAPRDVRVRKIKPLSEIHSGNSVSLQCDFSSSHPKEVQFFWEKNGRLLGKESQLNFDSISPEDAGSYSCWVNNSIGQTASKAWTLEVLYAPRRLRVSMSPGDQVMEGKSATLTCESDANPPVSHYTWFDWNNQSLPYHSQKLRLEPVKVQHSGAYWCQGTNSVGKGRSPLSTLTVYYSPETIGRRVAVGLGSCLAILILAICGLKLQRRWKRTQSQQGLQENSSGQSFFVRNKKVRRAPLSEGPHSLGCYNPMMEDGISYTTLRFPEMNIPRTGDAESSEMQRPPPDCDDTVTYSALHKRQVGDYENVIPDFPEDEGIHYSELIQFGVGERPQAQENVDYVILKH

T2: CD22 (antigen in the Biacore assay) (human, UniProt P20273 20-687, limits assumed)
T2 sequence: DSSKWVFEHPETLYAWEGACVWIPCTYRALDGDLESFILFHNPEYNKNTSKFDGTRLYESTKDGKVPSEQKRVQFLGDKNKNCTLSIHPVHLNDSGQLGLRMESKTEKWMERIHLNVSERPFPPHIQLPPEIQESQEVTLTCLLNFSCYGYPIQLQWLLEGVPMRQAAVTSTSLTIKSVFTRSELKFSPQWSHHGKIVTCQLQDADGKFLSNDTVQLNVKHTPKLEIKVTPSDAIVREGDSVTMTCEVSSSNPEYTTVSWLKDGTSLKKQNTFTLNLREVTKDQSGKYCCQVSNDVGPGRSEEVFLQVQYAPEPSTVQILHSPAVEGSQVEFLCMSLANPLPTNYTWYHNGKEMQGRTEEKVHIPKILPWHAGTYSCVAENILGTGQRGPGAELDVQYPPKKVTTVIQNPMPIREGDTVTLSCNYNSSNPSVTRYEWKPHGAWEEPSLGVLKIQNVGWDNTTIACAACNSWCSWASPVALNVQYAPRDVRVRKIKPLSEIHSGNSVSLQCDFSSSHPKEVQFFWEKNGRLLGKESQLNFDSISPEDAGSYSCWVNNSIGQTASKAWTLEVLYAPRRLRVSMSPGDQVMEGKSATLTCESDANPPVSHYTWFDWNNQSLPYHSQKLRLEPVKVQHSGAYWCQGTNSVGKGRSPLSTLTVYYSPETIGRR

B1: chimeric LL2 antibody (antibody, V domains shown)
VH: QVQLQESGAELSKPGASVKMSCKASGYTFTSYWLHWIKQRPGQGLEWIGYINPRNDYTEYNQNFKDKATLTADKSSSTAYMQLSSLTSEDSAVYYCARRDITTFYWGQGTTLTVSS
VL: DIQLTQSPSSLAVSAGENVTMSCKSSQSVLYSANHKNYLAWYQQKPGQSPKLLIYWASTRESGVPDRFTGSGSGTDFTLTISRVQVEDLAIYYCHQYLSSWTFGGGTKLEIK
notes: Murine LL2 variable domains with human constant domains (IgG1)
B2: humanized LL2 L1 + H9 (antibody, V domains shown)
VH: QVQLVQSGAEVKKPGASVKVSCKASGYTFTSYWLHWVRQAPGQRLEWIGYINPRNDYTEYNQNFKDRVTITADTSASTAYMELSSLRSEDTAVYYCARRDITTFYWGQGTTLTVSS
VL: B1 VL with Q3V, S9D, N18R, S22N, S49P, T69S, R83S, V86A, L89V
notes: Human IgG1 frameworks; also called H9L1
B3: humanized LL2 L1 + H12 (antibody, V domains shown)
VH: B2 VH with V5Q, V20M, I48M
VL: B1 VL with Q3V, S9D, N18R, S22N, S49P, T69S, R83S, V86A, L89V
notes: Human IgG1 frameworks; also called H12L1; VL1-VH12
B4: humanized LL2 L2 + H2 (antibody, V domains shown)
VH: QVQLQESGAEVKKPGASVKMSCKASGYTFTSYWLHWIRQAPGQRLEWIGYINPRNDYTKYSQKFQGRVTLTRDKSASTAYMELSSLRSEDTAVYYCARRDITTFYWGQGTTLTVSS
VL: B1 VL with Q3V, S9D, A15L, N18R, S22N, T69S, R83S, V86A, L89V
notes: Human IgG1 frameworks
B5: humanized LL2 L1 + H6 (antibody, V domains shown)
VH: B2 VH with V5Q, V37I, I48M, A72R
VL: B1 VL with Q3V, S9D, N18R, S22N, S49P, T69S, R83S, V86A, L89V
notes: Human IgG1 frameworks; also called H6L1
B6: humanized LL2 L2 + H4 (antibody, V domains shown)
VH: B4 VH with E6Q, I48M, K59E, S61N, V68A, L70I, R72A
VL: B1 VL with Q3V, S9D, A15L, N18R, S22N, T69S, R83S, V86A, L89V
notes: Human IgG1 frameworks
B7: humanized LL2 L1 + H3 (antibody, V domains shown)
VH: B4 VH with E6Q, M20V, K59E, V68A, R72A, K74T
VL: B1 VL with Q3V, S9D, N18R, S22N, S49P, T69S, R83S, V86A, L89V
notes: Human IgG1 frameworks; also called H3L1
B8: humanized LL2 L1 + H11 (antibody, V domains shown)
VH: B2 VH with V20M, I48M, V68A
VL: B1 VL with Q3V, S9D, N18R, S22N, S49P, T69S, R83S, V86A, L89V
notes: Human IgG1 frameworks; also called H11L1; VL1-VH11
B9: humanized LL2 L2 + H1 (antibody, V domains shown)
VH: B4 VH with Q5V, V68A, L70I, R72A
VL: B1 VL with Q3V, S9D, A15L, N18R, S22N, T69S, R83S, V86A, L89V
notes: Human IgG1 frameworks; also called H1L2
B10: humanized LL2 L1 + H10 (antibody, V domains shown)
VH: B2 VH with I48M, I70L, T74K
VL: B1 VL with Q3V, S9D, N18R, S22N, S49P, T69S, R83S, V86A, L89V
notes: Human IgG1 frameworks; also called H10L1
B11: humanized LL2 L1 + H7 (antibody, V domains shown)
VH: B2 VH with Q6E, I48M, V68A, A72R
VL: B1 VL with Q3V, S9D, N18R, S22N, S49P, T69S, R83S, V86A, L89V
notes: Human IgG1 frameworks
B12: humanized LL2 L2 + H10 (antibody, V domains shown)
VH: B2 VH with I48M, I70L, T74K
VL: B1 VL with Q3V, S9D, A15L, N18R, S22N, T69S, R83S, V86A, L89V
notes: Human IgG1 frameworks
B13: humanized LL2 L1 + H5 (antibody, V domains shown)
VH: B4 VH with M20V, I37V, K59E, V68A, R72A, K74T
VL: B1 VL with Q3V, S9D, N18R, S22N, S49P, T69S, R83S, V86A, L89V
notes: Human IgG1 frameworks; also called H5L1
B14: humanized LL2 L2 + H6 (antibody, V domains shown)
VH: B2 VH with V5Q, V37I, I48M, A72R
VL: B1 VL with Q3V, S9D, A15L, N18R, S22N, T69S, R83S, V86A, L89V
notes: Human IgG1 frameworks
B15: humanized LL2 L2 + H9 (antibody, V domains shown)
VH: B2 VH
VL: B1 VL with Q3V, S9D, A15L, N18R, S22N, T69S, R83S, V86A, L89V
notes: Human IgG1 frameworks
B16: humanized LL2 L2 + H11 (antibody, V domains shown)
VH: B2 VH with V20M, I48M, V68A
VL: B1 VL with Q3V, S9D, A15L, N18R, S22N, T69S, R83S, V86A, L89V
notes: Human IgG1 frameworks
B17: humanized LL2 L1 + H2 (antibody, V domains shown)
VH: B4 VH
VL: B1 VL with Q3V, S9D, N18R, S22N, S49P, T69S, R83S, V86A, L89V
notes: Human IgG1 frameworks; also called H2L1
B18: humanized LL2 L1 + H4 (antibody, V domains shown)
VH: B4 VH with E6Q, I48M, K59E, S61N, V68A, L70I, R72A
VL: B1 VL with Q3V, S9D, N18R, S22N, S49P, T69S, R83S, V86A, L89V
notes: Human IgG1 frameworks; also called H4L1
B19: humanized LL2 L2 + H8 (antibody, V domains shown)
VH: B2 VH with Q6E, V37I, I48M, A72R
VL: B1 VL with Q3V, S9D, A15L, N18R, S22N, T69S, R83S, V86A, L89V
notes: Human IgG1 frameworks
B20: humanized LL2 L2 + H3 (antibody, V domains shown)
VH: B4 VH with E6Q, M20V, K59E, V68A, R72A, K74T
VL: B1 VL with Q3V, S9D, A15L, N18R, S22N, T69S, R83S, V86A, L89V
notes: Human IgG1 frameworks
B21: humanized LL2 L2 + H12 (antibody, V domains shown)
VH: B2 VH with V5Q, V20M, I48M
VL: B1 VL with Q3V, S9D, A15L, N18R, S22N, T69S, R83S, V86A, L89V
notes: Human IgG1 frameworks
B22: humanized LL2 L1 + H1 (antibody, V domains shown)
VH: B4 VH with Q5V, V68A, L70I, R72A
VL: B1 VL with Q3V, S9D, N18R, S22N, S49P, T69S, R83S, V86A, L89V
notes: Human IgG1 frameworks
B23: humanized LL2 L2 + H5 (antibody, V domains shown)
VH: B4 VH with M20V, I37V, K59E, V68A, R72A, K74T
VL: B1 VL with Q3V, S9D, A15L, N18R, S22N, T69S, R83S, V86A, L89V
notes: Human IgG1 frameworks
B24: humanized LL2 L1 + H8 (antibody, V domains shown)
VH: B2 VH with Q6E, V37I, I48M, A72R
VL: B1 VL with Q3V, S9D, N18R, S22N, S49P, T69S, R83S, V86A, L89V
notes: Human IgG1 frameworks
B25: humanized LL2 L2 + H7 (antibody, V domains shown)
VH: B2 VH with Q6E, I48M, V68A, A72R
VL: B1 VL with Q3V, S9D, A15L, N18R, S22N, T69S, R83S, V86A, L89V
notes: Human IgG1 frameworks

Target: T1, CD22 (UniProtKB-P20273) on CD22(+) cells
Experiment: flow cytometry on CD22(+) NALM6 cells

Row | MFI (FACS NALM6) | Binder
1 | 33.4 | B1
2 | 34.5 | B2
3 | 39.2 | B3
4 | 28.1 | B4
5 | 33.5 | B5
6 | 35.9 | B6
7 | 31.9 | B7
8 | 33.6 | B8
9 | 40 | B9
10 | 32.7 | B10
11 | 21.8 | B11
12 | 37 | B12
13 | 35.2 | B13
14 | 36.1 | B14
15 | 34.3 | B15
16 | 36.3 | B16
17 | 32.8 | B17
18 | 33.6 | B18
19 | 26.7 | B19
20 | 36.8 | B20
21 | 31.7 | B21
22 | 26.4 | B22
23 | 40.4 | B23
24 | 23.3 | B24
25 | 27.3 | B25

Target: T2, CD22 (antigen in the Biacore assay)
Experiment: SPR (Biacore) at 37° C

Row | Kd [pM] | koff [s⁻¹] | kon [M⁻¹ s⁻¹] | Binder
26 | 1.37 | 2.31e-07 | 169000 | B1
27 | 24.8 | 3.3e-06 | 133000 | B2
28 | 2.05 | 5.88e-07 | 287000 | B3
29 | 0.17 | 2.91e-08 | 171000 | B5
30 | 34.4 | 3.09e-06 | 89800 | B7
31 | 0.0104 | 1.71e-09 | 164000 | B8
32 | 403 | 0.00219 | 5.43e+06 | B9
33 | 0.0435 | 7.67e-09 | 176000 | B10
34 | 41 | 4.19e-06 | 102000 | B13
35 | 1720 | 0.00478 | 2.77e+06 | B17
36 | 0.00191 |  | 154000 | B18
